Measured values as given in patent US10677783B2, “Method for evaluating effect of cytokine on metabolic activity of cytochrome P450, and drug screening method” (Corning Incorporated, priority 2012, dated 2020).

Tests used:
Format in all cases: cell-based, human
CYP3A4 [1] = assay: Amount of CYP3A4 protein by western blotting in FLC-4 cells on flat 24-well plate (comparative example, CONFLUENT)
Method: As the culture chamber, a commercially-available 24-well plate having a flat culture surface was used. The cell culture grade was used as the grade for the culture plate.
Except for the above-mentioned conditions, the comparative example was carried out under the same conditions as those for the example.
(§1) Epidermal Growth Factor (EFG) was used as the cytokine.
(§2) DMEM/F12 (DMEM/E12 FBS(−)) containing no serum was used as a solvent for each test solution.
(§3) To study the cytokine concentrations of the second and third test solutions, test solutions respectively having EGF concentrations of 0.1 ng/mL, 1 ng/mL, and 10 ng/mL were prepared. Note that the cells were cultured in each test solution in advance to obtain a cell survival rate, and it was confirmed that the cell survival rate at these concentrations was 80% or more.
(§4) The total amount of old culture medium was removed from each well by using a pipette (culture medium removing process).
Each test solution for studying the cytokine concentration was added to each well (test solution addition process). […]
(§5) The cells corresponding to three to six wells were sonicated by a Lysis buffer containing 0.1% protease inhibitor cocktail and 1 mM PMSF (Phenylmethyl sulfonyl fluoride). […] ImmunoStar LD (Wako Pure Chemical Industries, Ltd.) was used as protein and was detected using LAS-1000 plus (Fujifilm, Tokyo).

FLC-4 cells = assay: Cell survival rate of cells cultured in cytokine test solutions; settings: EGF concentrations of 0.1, 1 and 10 ng/mL
Method: as §3

CYP3A4 [2] = assay: Amount of CYP3A4 protein by western blotting in spheroid-shaped FLC-4 cells (example, MICRO-SPACE)
Source text: (§6) A plurality of culture chambers 10a are formed on the bottom culture surface of each well 21a. Each culture chamber 10a includes culture rooms 11a each having the equivalent diameter D of 200 μm and the height H of 100 μm. The width W of each wall 12a is 10 μm.
(§7) As cells to be cultured, FLC-4 cells which are established hepatocyte cell lines […] were used.
as §1, §2, §3
The total amount of old culture medium was removed from each well by using a pipette (culture medium removing process). […]
as §5

CYP3A4 [3] = assay: CYP3A4 mRNA expression by RT-qPCR in spheroid-shaped FLC-4 cells (example, MICRO-SPACE); settings: EGF 10 ng/mL, drug-free vs cytokine-free and drug-free; FIG. 20
Source text: as §6, §7
As a culture medium, a DMEM/F 12 culture medium containing 10% fetal bovine serum (FBS) was used. A cell suspension was adjusted at a cell seeding density of 16×10^5 cells/mL.
The cells were cultured in a CO2 incubator for 10 to 11 days. The culture medium was replaced once every three days.
as §4
A test solution or a control solution was added to each well (test solution addition process).
The cells were incubated in a CO2 incubator for eight hours, 24 hours, or 48 hours at 37° C. (contact process). […]
The analysis was made using a total amount of 20 μL of reaction liquid containing 9.6 μL of EagleTaq Master Mix with ROX (Roche, Branchburg, N.J., USA), 0.96 μL of 20× Assays-on-Demand™ Gene Expression Assay Mix (Applied Biosystems), 7.1 μL of sterilized MiliQ water, and 1.8 μL of cDNA diluted by a factor of 5, and the reaction liquid was measured by Real-time PCR.

[4] = EGF 0, 0.1, 1, 10 ng/mL, western blotting

B1: Epidermal Growth Factor (protein, UniProt P01133 23-1207, looked up)
Pro-epidermal growth factor: PQHWSCPEGTLAGNGNSTCVGPAPFLIFSHGNSIFRIDTEGTNYEQLVVDAGVSVIMDFHYNEKRIYWVDLERQLLQRVFLNGSRQERVCNIEKNVSGMAINWINEEVIWSNQQEGIITVTDMKGNNSHILLSALKYPANVAVDPVERFIFWSSEVAGSLYRADLDGVGVKALLETSEKITAVSLDVLDKRLFWIQYNREGSNSLICSCDYDGGSVHISKHPTQHNLFAMSLFGDRIFYSTWKMKTIWIANKHTGKDMVRINLHSSFVPLGELKVVHPLAQPKAEDDTWEPEQKLCKLRKGNCSSTVCGQDLQSHLCMCAEGYALSRDRKYCEDVNECAFWNHGCTLGCKNTPGSYYCTCPVGFVLLPDGKRCHQLVSCPRNVSECSHDCVLTSEGPLCFCPEGSVLERDGKTCSGCSSPDNGGCSQLCVPLSPVSWECDCFPGYDLQLDEKSCAASGPQPFLLFANSQDIRHMHFDGTDYGTLLSQQMGMVYALDHDPVENKIYFAHTALKWIERANMDGSQRERLIEEGVDVPEGLAVDWIGRRFYWTDRGKSLIGRSDLNGKRSKIITKENISQPRGIAVHPMAKRLFWTDTGINPRIESSSLQGLGRLVIASSDLIWPSGITIDFLTDKLYWCDAKQSVIEMANLDGSKRRRLTQNDVGHPFAVAVFEDYVWFSDWAMPSVMRVNKRTGKDRVRLQGSMLKPSSLVVVHPLAKPGADPCLYQNGGCEHICKKRLGTAWCSCREGFMKASDGKTCLALDGHQLLAGGEVDLKNQVTPLDILSKTRVSEDNITESQHMLVAEIMVSDQDDCAPVGCSMYARCISEGEDATCQCLKGFAGDGKLCSDIDECEMGVPVCPPASSKCINTEGGYVCRCSEGYQGDGIHCLDIDECQLGEHSCGENASCTNTEGGYTCMCAGRLSEPGLICPDSTPPPHLREDDHHYSVRNSDSECPLSHDGYCLHDGVCMYIEALDKYACNCVVGYIGERCQYRDLKWWELRHAGHGQQQKVIVVAVCVVVLVMLLLLSLWGAHYYRTQKLLSKNPKNPYEESSRDVRSRRPADTEDGMSSCPQPWFVVIKEHQDLKNGGQPVAGEDGQAADGSMQPTSWRQEPQLCGMGTEQGCWIPVSSDKGSCPQVMERSFHMPSYGTQTLEGGVEKPHSLLSANPLWQQRALDPPHQMELTQ
modifications: Pro-epidermal growth factor
notes: Epidermal Growth Factor used as the cytokine
function of CYP3A4 (amount of CYP3A4 protein, bands), concentration dependency (CYP3A4 [1]; [4]): the concentration dependency was not confirmed
amount of CYP3A4 protein, second test solution versus first test solution (CYP3A4 [1]; EGF 10 ng/mL (C10) vs 0 ng/mL (C0), FIG. 19): C0 and C10 are nearly equal
cell survival rate (FLC-4 cells): ≥ 80%
function of CYP3A4 (amount of CYP3A4 protein, bands), concentration dependency (CYP3A4 [2]; [4]): decreases depending on the concentration
amount of CYP3A4 protein, second test solution versus first test solution (CYP3A4 [2]; EGF 10 ng/mL (M10) vs 0 ng/mL (M0), FIG. 19): M0 is greater than M10
value of the metabolic function of CYP3A4 (mRNA expression level), second test solution versus first test solution (CYP3A4 [3]): lower
